The values that follow come from patent publication US20100184658A1 (published 2010).

In general, IC50 refers to the concentration that inhibits the measured activity by half. Lower therefore signals higher potency.

What all share (assay): cell-based or functional assay
One test deals with T1, IKBKB (IKK beta) IKK2 (human (printed as (h)), UniProt O14920 1-756, limits assumed).
T1 sequence (looked up): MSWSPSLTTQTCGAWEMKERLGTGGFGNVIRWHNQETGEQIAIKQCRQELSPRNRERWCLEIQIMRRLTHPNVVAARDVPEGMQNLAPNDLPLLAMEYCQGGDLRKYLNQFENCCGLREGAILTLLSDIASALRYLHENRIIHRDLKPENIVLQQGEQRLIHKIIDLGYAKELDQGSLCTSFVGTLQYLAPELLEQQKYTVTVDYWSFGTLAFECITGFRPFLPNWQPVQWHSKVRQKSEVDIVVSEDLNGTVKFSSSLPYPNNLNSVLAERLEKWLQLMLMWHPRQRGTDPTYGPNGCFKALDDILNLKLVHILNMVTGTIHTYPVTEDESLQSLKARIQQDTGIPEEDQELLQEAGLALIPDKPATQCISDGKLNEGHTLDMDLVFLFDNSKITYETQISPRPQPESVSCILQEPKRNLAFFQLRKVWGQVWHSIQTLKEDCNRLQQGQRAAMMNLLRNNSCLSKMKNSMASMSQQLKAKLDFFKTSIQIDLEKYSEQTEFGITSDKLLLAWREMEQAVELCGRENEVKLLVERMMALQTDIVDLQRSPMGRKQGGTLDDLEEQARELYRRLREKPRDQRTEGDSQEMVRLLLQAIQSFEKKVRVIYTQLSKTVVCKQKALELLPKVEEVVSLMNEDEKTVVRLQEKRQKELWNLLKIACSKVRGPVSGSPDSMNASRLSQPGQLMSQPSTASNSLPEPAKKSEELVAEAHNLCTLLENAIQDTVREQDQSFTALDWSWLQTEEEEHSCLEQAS

Test [1] deals with RPS6KB1 (p70S6K) Ribosomal protein S6 kinase, 70 kDa, polypeptide 1 (human (printed as (h)), UniProt P23443 1-421, limits assumed).
A further test concerns the target PRKCB2 (PKC beta II) (human (printed as (h)), UniProt P05771-2 1-673).
The target of a further test is GSK3β(h) (human (printed as (h)), UniProt P49841 1-420, limits assumed).
Chain of GSK3β(h) (human (printed as (h)), UniProt P49841 1-420, limits assumed) (P49841 whole entry): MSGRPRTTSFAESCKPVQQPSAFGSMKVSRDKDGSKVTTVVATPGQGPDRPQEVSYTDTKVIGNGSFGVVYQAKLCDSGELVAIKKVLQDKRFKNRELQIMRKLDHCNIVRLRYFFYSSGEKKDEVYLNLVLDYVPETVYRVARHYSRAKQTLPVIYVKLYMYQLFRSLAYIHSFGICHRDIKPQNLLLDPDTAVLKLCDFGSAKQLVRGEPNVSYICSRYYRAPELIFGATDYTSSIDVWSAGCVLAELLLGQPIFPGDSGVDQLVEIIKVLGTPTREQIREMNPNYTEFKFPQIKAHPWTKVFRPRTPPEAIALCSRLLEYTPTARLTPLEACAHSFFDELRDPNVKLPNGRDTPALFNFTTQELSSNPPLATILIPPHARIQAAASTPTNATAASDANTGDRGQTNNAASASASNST

Chain of RPS6KB1 (p70S6K) Ribosomal protein S6 kinase, 70 kDa, polypeptide 1 (human (printed as (h)), UniProt P23443 1-421, limits assumed) (P23443 1-421 limits assumed): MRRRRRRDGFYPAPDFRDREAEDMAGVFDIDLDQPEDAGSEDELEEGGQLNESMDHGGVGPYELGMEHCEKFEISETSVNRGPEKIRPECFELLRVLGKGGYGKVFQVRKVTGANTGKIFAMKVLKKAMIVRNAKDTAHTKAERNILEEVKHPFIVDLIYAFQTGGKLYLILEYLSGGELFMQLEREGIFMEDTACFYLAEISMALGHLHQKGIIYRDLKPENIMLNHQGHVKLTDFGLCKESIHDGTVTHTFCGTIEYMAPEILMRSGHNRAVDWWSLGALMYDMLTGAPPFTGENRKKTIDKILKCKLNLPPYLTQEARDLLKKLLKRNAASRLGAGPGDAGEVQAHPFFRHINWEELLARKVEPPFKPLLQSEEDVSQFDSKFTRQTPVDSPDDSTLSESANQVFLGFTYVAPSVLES
Chain of PRKCB2 (PKC beta II) (human (printed as (h)), UniProt P05771-2 1-673) (P05771 other isoform, or with tags, fused parts or gaps limits assumed): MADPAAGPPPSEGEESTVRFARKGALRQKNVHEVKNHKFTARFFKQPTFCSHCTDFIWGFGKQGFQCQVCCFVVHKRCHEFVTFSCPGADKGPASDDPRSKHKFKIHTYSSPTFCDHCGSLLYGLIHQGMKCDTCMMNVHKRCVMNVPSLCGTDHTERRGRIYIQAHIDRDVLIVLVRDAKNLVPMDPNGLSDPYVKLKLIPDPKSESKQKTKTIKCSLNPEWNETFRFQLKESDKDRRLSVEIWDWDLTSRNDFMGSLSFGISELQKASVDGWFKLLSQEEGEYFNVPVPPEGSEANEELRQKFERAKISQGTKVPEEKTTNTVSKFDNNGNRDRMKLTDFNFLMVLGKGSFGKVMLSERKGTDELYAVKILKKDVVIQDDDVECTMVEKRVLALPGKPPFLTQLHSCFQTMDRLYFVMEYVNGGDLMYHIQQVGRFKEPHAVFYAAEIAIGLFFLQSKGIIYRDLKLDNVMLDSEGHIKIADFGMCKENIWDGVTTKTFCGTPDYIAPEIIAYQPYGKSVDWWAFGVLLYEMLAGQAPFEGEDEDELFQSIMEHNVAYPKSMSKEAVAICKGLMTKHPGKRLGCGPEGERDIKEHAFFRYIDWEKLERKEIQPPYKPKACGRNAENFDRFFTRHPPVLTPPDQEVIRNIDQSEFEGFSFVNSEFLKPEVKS

B1: D3 peptide (peptide)
peptide: SGRPPMIVWFNRPFLIAVSHTHGQTILFMAKVINPVGA
On to B1, for which the “D3 at 0.1 µM % activity” value was 103% with IKBKB (IKK beta) IKK2, 73% in test [1], 101% with PRKCB2 (PKC beta II) and 101% in the test with GSK3β(h). Also, the “D3 at 1 µm % activity” value stood at 71% with IKBKB (IKK beta) IKK2, 22% in test [1], 103% in the test with PRKCB2 (PKC beta II) and 100% in the test with GSK3β(h). Further, the “IC50” value in test [1] is 373 nM.
